# T1: IFN-γ receptor complex (IFN-γR1/EBFP and IFN-γR2/GFP) (Homo sapiens, UniProt P15260)
# T1 construct: EBFP (enhanced blue fluorescent protein); expressed in transfected cells; host or cells: COS-1
# T1 sequence (P15260 18-489): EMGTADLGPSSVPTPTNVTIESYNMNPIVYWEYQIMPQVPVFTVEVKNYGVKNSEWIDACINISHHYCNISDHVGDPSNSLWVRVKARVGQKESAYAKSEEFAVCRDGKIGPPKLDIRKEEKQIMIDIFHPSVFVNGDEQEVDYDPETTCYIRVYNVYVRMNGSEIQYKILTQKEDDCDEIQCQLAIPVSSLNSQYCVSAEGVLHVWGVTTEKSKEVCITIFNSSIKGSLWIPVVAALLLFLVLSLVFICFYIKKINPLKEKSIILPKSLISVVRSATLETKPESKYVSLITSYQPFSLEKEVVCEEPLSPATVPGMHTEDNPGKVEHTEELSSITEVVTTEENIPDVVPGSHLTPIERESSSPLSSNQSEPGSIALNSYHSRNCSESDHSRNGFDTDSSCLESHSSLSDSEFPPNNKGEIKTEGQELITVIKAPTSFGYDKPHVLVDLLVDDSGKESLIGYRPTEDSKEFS
# T2: IFN-γR1/EBFP and IL-10R2/GFP (Homo sapiens, UniProt P15260)
# T2 construct: expressed in transfected cells; host or cells: COS-1
# T2 sequence (P15260 18-489): T1 sequence (P15260 18-489)
# T3: IFN-γR2/EBFP, IFN-γR2/GFP and IFN-γR1 chains (Homo sapiens, UniProt P15260)
# T3 construct: expressed in transfected cells; host or cells: COS-1
# T3 sequence (P15260 18-489): T1 sequence (P15260 18-489)
# B1: IFN-γ: protein secreted by lymphocytes, specifically T-cells and NK-cells; ligand of the IFN-γ receptor complex (protein, UniProt P01579 24-161, looked up)
# Interferon gamma: QDPYVKEAENLKKYFNAGHSDVADNGTLFLGILKNWKEESDRKIMQSQIVSFYFKLFKNFKDDQSIQKSVETIKEDMNVKFFNSNKKKRDDFEKLTNYSVTDLNVQRKAIHELIQVMAELSPAAKTGKRKRSQMLFRG
# Experiments:
# [1] = tested on: IFN-γR2/EBFP and IFN-γR2/GFP; test: FRET between IFN-γR2/EBFP and IFN-γR2/GFP in COS-1 cells without IFN-γR1 chain; format: cell-based, human; conditions: cells expressing only IFN-γR2 chains, no IFN-γR1 chain; FIG. 9 left panels
# From the text: (§1) FIG. 9 Fluorescence transfer between the FL-IFN-γR2/GFP and FL-IFN-γR2/EBFP chains. Both FL-IFN-γR2/GFP and FL-IFN-γR2/EBFP were transfected into COS-1 cells in the absence (left panels) or presence (right panels) of the unlabeled IFN-γR1 chain. Spectra were taken in the presence and absence of IFN-γ.
# (§2) Construction of Vectors to Measure FRET in Cells and Transfections. As noted above, green and blue fluorescent proteins (GFP and BFP) were discovered and developed by a number of groups that enabled these fluorescent protein to be seen and localized in cells; and several groups have begun to use FRET to study the interactions of proteins in cells. In our studies, the IFN-γ receptor complex (FIG. 1) was used as the model system to evaluate the ability of FRET to provide insight into the structure of the receptor and to determine the molecular dynamics after attachment of the ligand IFN-γ to the receptor. In order to carry out these studies, IFN-γR1 and IFN-γR2 chains with BFP (or EBFP) and GFP fused to the carboxyl termini of their intracellular domains were constructed (FIG. 2, top). By fusing the DNA encoding the blue fluorescent protein (BFP) to the DNA encoding the carboxyl terminus of the IFN-γR1 chain and by fusing the DNA encoding GFP to the DNA encoding the carboxyl terminus of the IFN-γR2 chain, the cells produce IFN-γR11/BFP and IFN-γR2/GFP. […]
# CHO cells = conditions: absence of the human receptor chains; cited from earlier work
# [2] = tested on: Chinese hamster ovary (CHO) q3 cells; test: MHC class I antigen induction in CHO q3 cells transfected with human receptor chains; format: cell-based; conditions: CHO q3 cells with human receptor chains with or without GFP and EBFP; FIG. 3
# From the text: The human receptor chains (IFN-γR1 and FL-IFN-γR2) without fluorescent proteins (left panel) and those with the fluorescent proteins (IFN-γR1/EBFP and FL-IFN-γR2/GFP) (right panel) were transfected into Chinese hamster ovary (CHO) q3 cells and MHC class I antigen induction measured in response to hamster and human IFN-γ. In the absence of the human receptor chains, Hu-IFN-γ has no effect on CHO cells (78, 87, 98). […] The CHO q3 cells were derived as follows. Hamster UCH-12 cells containing a stable translocation of human chromosome 3q were obtained from Carol Jones and David Patterson. UCH-12 cells were transfected with plasmid pJYI50R1.1 that encodes the intact HLAB7 gene (101) and the resulting cells designated q3. […] The stably transfected population of q3 cells was grown in F12 media supplemented with 10% FBS without selecting antibiotics. […] After three rounds of selection, individual clones were isolated by limiting dilution and amplified. […] MHC class I antigen induction in response to IFN-γ was performed as described (93).
# Stable transformants were made in the CHO-derived cell line q3 by the Lipofectin method and limiting dilution clonal isolation.
# Images, Spectra and Activity of human IFN-γR2/GFP and IFN-γR1/BFP transfected into COS-1 cells. […]
# [3] = target: T1, IFN-γ receptor complex (IFN-γR1/EBFP and IFN-γR2/GFP); test: FRET between IFN-γR1/BFP (EBFP) and IFN-γR2/GFP (matched pair) in single live COS-1 cells; format: cell-based
# From the text: A mammalian expression vector was used to express human interferon γ receptor chains one and two (IFN-γR1 and IFN-γR2) with blue- and green-fluorescent proteins (BFP and GFP) fused to the carboxyl terminus of the chains, respectively. A tandem vector was used so that both chains were expressed in COS-1 cells under the control of the EF-1 promoter. A single cell expressing both of these chains was used to carry out the experiment to examine the effect of human IFN-γ on the distance between the chains and to determine if the chains were associated prior to addition of ligand. This is accomplished by using FRET.
# Construction of Vectors to Measure FRET in Cells and Transfections. As noted above, green and blue fluorescent proteins (GFP and BFP) were discovered and developed by a number of groups that enabled these fluorescent protein to be seen and localized in cells; and several groups have begun to use FRET to study the interactions of proteins in cells. In our studies, the IFN-γ receptor complex (FIG. 1) was used as the model system to evaluate the ability of FRET to provide insight into the structure of the receptor and to determine the molecular dynamics after attachment of the ligand IFN-γ to the receptor. […]
# [4] = target: T2, IFN-γR1/EBFP and IL-10R2/GFP; test: FRET between mismatched receptor pair IFN-γR1/EBFP and IL-10R2/GFP in COS-1 cells; format: cell-based; conditions: two-photon excitation at 760 nm; FIG. 7
# From the text: as §2, with “IFN-γR2/GFP. In this way, the BFP and GFP were fused to the intracellular domains of IFN-γR1 and IFN-γR2, respectively (FIG. 2), to monitor interactions among these two receptor chains in intact cells-with and-without IFN-γ treatment.” for “IFN-γR2/GFP.”
# [5] = target: T3, IFN-γR2/EBFP, IFN-γR2/GFP and IFN-γR1 chains; test: FRET between IFN-γR2/EBFP and IFN-γR2/GFP in COS-1 cells with unlabeled IFN-γR1 chain; format: cell-based; conditions: cells expressing IFN-γR2/EBFP, FIG. 9 right panel
# From the text: as §1, §2
Molecule,change in FRET spectrum in the presence of IFN-γ [1],effect on CHO cells (CHO cells),MHC class I antigen induction [2],"effect on the FRET of the matched receptor pair ([3]; IFN-γ 3500 units/ml added to medium, two-photon excitation at 760 nm, FIG. 8)","FRET signal after treatment of cells with IFN-γ ([3]; single COS-1 cell expressing IFN-γR1 and IFN-γR2 fused to BFP and GFP, excited at 760 nm, FIGS. 12 and 13)",effect on the fluorescence spectrum of the mismatched pair [4],change in FRET spectrum in the presence of IFN-γ [5]
"IFN-γ: protein secreted by lymphocytes, specifically T-cells and NK-cells; ligand of the IFN-γ receptor complex",no change in the spectrum,no effect,as effective as that of hamster IFN-γ,–,–,–,–
B1,–,–,–,major reduction in the FRET,almost completely abolished,did not affect the spectrum,large change in the spectrum
